In the supplement of paper PMC10567573:

B1: IKZF1 (parent)
chain: RDPFECNMCGYHSQDRYEFSSHIT
B2: ZNF207 (parent)
chain: YQGGPPRPPMGMRPPVMSQGGRY

Variants of: B1
Assay: protein stability index of a GFP-peptide fusion (GPS, HEK-293T) (PSI 1-6); higher = more stable
Conditions: c terminus: a fixed tail appended
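Further: lentivirally expressed fusions sorted by FACS into six bins by GFP to DsRed ratio, PSI derived from sequencing read proportions per bin multiplied by bin number.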

Protein stability index of substitutions, site by site:
T24: P 2.32, M 1.57, S 1.75, Q 2.18, C 5.1, K 2.52, E 2.47, H 2.38, Y 1.39, G 1.74, A 2.42, V 1.85, L 2.19, I 2.28, F 1.95, D 2.68, R 2.24, N 2.23, W 2.71
I23: N 2.28, C 2.59, F 2.03, R 2, W 1.77, S 2.5, P 2.35, V 2.43, L 2.15, T 2.36, Y 1.82, M 2.27, E 3.48, Q 2.21, D 3.32, G 2.43, K 2.75, H 2.57, A 2.23
H22: G 2.17, D 2.7, R 1.58, Y 2.84, Q 2.02, I 1.83, V 1.75, C 2.54, N 2.28, K 1.92, S 1.88, F 1.97, E 2.55, L 1.81, W 1.65, T 2.08, P 2.12, M 1.79, A 2.15
S21: I 2.28, F 2.06, D 2.17, R 1.84, Q 1.83, H 2.63, P 2.68, Y 1.57, L 2.03, G 2.38, W 2.31, K 2.28, A 1.81, E 2.27, T 2.35, M 1.84, V 2.36, N 2.3, C 2.21
S20: V 2.16, W 2.15, T 2.04, Y 1.71

Variants of: B2
Assay: as above
Conditions: c terminus: native

Protein stability index: each site, then its substitutions
G4: Q 3.54, Y 2.05, S 3.05, N 3.23, M 1.46, K 2.78, D 3.56, I 2.34, E 2.69, R 2.51, L 1.5, C 2.52, V 2.74, W 3.5, H 2.6
P6: H 2.23, M 2.19, Y 1.78, N 2.59, L 2.58, Q 2.2, A 1.6, E 2.95, I 2.49, C 1.96, K 2.91, T 2.06, S 2.45, G 2.07, D 2.73
Q2: L 2.34, A 2.19, D 2.16, Y 2.89, P 1.72, G 3.02, W 2.1, F 1.65, N 2.45, E 2.4, K 2.57, M 2.05
G3: Y 2.42, M 1.59, S 1.47, W 1.39, L 2.31, A 2.62, I 3.37, E 2.33, Q 2.32, K 2.89, H 1.5, N 1.38, V 1.43
R7: C 1.23, L 1.7, K 2.71, I 1.92, G 2.8, E 3.09
P5: T 3.09, E 2.81, V 2.82, C 1.61, K 2.56, Q 2.62, I 1.71, H 1.92, M 1.22, G 2.99, A 2.27, L 2.34, N 2.12
Y1: T 2.64, S 1.67, Q 3.65, N 3.31, G 3.87, R 3.21, H 2.91, M 3.87, I 2.89, C 3.27, A 3.11, K 3.55, W 2.49
